Where two headings read alike, the source gives them in different places.
How the values were obtained:
[1] = target: purified human full-length LRP1 (low-density lipoprotein receptor-related protein 1) (human); assay: ELISA; solid-phase binding; full-length LRP1 (5 nM in TNC) coated on microtiter plates overnight at 4 °C, blocked with 3% BSA; MMPs 0-50 nM for 3 h at room temperature; detected with anti-MMP antibodies and HRP secondary antibody; apparent KD (K_D,app)
[2] = target: purified human full-length LRP1 (low-density lipoprotein receptor-related protein 1); assay: solid-phase binding assay (ELISA) on immobilized LRP1; settings: point at 50 nM MMP, read off a plot
[3] = target: purified human full-length LRP1 (low-density lipoprotein receptor-related protein 1); assay: competition solid-phase binding assay (ELISA) on immobilized LRP1; settings: 200 nM proMMP-1(E200A) as competitor of 6 nM proMMP-13(E223A); detection with anti-FLAG M2 antibody; read off a plot
[4] = target: purified human full-length LRP1 (low-density lipoprotein receptor-related protein 1) (human); assay: ELISA; full-length LRP1 coated; proMMP-13(E223A) 0-40 nM in the absence or presence of 50 nM ADAMTS-5, 250 nM ADAMTS-4 or 50 nM TIMP-3 plus 50 μM CT1746; apparent KD (K_D,app)
[5] = target: LRP1 ligand-binding cluster I (human) (UniProt Q07954); assay: ELISA; purified LRP1 fragments (clusters I to IV) coated on microtiter plates; proMMP-13(E223A) or Hpx_(MMP-13) 0-200 nM; detected with anti-MMP-13 181-14G11; extrapolated apparent KD (K_D,app)
[6] = target: LRP1 ligand-binding cluster IV (human) (UniProt Q07954); assay: as above
[7] = target: T1, LRP1 ligand-binding cluster II (human, UniProt Q07954 852-1182); assay: as above
T1 construct: also called soluble LRP1 cluster II
T1 sequence (looked up): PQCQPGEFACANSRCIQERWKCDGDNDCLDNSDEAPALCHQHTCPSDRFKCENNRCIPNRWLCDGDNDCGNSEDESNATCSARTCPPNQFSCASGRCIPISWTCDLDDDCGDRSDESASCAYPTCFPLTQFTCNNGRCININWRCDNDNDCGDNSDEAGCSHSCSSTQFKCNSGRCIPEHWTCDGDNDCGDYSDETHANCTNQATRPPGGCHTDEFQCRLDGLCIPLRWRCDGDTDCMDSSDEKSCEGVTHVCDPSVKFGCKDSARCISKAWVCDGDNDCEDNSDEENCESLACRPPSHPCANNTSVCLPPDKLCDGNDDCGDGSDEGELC

[8] = target: LRP1 ligand-binding cluster III (human, UniProt Q07954 2522-2940); assay: as above
[9] = target: purified human full-length LRP1 (low-density lipoprotein receptor-related protein 1) (human)

Chain of LRP1 ligand-binding cluster IV (human) (Q07954 20-4544): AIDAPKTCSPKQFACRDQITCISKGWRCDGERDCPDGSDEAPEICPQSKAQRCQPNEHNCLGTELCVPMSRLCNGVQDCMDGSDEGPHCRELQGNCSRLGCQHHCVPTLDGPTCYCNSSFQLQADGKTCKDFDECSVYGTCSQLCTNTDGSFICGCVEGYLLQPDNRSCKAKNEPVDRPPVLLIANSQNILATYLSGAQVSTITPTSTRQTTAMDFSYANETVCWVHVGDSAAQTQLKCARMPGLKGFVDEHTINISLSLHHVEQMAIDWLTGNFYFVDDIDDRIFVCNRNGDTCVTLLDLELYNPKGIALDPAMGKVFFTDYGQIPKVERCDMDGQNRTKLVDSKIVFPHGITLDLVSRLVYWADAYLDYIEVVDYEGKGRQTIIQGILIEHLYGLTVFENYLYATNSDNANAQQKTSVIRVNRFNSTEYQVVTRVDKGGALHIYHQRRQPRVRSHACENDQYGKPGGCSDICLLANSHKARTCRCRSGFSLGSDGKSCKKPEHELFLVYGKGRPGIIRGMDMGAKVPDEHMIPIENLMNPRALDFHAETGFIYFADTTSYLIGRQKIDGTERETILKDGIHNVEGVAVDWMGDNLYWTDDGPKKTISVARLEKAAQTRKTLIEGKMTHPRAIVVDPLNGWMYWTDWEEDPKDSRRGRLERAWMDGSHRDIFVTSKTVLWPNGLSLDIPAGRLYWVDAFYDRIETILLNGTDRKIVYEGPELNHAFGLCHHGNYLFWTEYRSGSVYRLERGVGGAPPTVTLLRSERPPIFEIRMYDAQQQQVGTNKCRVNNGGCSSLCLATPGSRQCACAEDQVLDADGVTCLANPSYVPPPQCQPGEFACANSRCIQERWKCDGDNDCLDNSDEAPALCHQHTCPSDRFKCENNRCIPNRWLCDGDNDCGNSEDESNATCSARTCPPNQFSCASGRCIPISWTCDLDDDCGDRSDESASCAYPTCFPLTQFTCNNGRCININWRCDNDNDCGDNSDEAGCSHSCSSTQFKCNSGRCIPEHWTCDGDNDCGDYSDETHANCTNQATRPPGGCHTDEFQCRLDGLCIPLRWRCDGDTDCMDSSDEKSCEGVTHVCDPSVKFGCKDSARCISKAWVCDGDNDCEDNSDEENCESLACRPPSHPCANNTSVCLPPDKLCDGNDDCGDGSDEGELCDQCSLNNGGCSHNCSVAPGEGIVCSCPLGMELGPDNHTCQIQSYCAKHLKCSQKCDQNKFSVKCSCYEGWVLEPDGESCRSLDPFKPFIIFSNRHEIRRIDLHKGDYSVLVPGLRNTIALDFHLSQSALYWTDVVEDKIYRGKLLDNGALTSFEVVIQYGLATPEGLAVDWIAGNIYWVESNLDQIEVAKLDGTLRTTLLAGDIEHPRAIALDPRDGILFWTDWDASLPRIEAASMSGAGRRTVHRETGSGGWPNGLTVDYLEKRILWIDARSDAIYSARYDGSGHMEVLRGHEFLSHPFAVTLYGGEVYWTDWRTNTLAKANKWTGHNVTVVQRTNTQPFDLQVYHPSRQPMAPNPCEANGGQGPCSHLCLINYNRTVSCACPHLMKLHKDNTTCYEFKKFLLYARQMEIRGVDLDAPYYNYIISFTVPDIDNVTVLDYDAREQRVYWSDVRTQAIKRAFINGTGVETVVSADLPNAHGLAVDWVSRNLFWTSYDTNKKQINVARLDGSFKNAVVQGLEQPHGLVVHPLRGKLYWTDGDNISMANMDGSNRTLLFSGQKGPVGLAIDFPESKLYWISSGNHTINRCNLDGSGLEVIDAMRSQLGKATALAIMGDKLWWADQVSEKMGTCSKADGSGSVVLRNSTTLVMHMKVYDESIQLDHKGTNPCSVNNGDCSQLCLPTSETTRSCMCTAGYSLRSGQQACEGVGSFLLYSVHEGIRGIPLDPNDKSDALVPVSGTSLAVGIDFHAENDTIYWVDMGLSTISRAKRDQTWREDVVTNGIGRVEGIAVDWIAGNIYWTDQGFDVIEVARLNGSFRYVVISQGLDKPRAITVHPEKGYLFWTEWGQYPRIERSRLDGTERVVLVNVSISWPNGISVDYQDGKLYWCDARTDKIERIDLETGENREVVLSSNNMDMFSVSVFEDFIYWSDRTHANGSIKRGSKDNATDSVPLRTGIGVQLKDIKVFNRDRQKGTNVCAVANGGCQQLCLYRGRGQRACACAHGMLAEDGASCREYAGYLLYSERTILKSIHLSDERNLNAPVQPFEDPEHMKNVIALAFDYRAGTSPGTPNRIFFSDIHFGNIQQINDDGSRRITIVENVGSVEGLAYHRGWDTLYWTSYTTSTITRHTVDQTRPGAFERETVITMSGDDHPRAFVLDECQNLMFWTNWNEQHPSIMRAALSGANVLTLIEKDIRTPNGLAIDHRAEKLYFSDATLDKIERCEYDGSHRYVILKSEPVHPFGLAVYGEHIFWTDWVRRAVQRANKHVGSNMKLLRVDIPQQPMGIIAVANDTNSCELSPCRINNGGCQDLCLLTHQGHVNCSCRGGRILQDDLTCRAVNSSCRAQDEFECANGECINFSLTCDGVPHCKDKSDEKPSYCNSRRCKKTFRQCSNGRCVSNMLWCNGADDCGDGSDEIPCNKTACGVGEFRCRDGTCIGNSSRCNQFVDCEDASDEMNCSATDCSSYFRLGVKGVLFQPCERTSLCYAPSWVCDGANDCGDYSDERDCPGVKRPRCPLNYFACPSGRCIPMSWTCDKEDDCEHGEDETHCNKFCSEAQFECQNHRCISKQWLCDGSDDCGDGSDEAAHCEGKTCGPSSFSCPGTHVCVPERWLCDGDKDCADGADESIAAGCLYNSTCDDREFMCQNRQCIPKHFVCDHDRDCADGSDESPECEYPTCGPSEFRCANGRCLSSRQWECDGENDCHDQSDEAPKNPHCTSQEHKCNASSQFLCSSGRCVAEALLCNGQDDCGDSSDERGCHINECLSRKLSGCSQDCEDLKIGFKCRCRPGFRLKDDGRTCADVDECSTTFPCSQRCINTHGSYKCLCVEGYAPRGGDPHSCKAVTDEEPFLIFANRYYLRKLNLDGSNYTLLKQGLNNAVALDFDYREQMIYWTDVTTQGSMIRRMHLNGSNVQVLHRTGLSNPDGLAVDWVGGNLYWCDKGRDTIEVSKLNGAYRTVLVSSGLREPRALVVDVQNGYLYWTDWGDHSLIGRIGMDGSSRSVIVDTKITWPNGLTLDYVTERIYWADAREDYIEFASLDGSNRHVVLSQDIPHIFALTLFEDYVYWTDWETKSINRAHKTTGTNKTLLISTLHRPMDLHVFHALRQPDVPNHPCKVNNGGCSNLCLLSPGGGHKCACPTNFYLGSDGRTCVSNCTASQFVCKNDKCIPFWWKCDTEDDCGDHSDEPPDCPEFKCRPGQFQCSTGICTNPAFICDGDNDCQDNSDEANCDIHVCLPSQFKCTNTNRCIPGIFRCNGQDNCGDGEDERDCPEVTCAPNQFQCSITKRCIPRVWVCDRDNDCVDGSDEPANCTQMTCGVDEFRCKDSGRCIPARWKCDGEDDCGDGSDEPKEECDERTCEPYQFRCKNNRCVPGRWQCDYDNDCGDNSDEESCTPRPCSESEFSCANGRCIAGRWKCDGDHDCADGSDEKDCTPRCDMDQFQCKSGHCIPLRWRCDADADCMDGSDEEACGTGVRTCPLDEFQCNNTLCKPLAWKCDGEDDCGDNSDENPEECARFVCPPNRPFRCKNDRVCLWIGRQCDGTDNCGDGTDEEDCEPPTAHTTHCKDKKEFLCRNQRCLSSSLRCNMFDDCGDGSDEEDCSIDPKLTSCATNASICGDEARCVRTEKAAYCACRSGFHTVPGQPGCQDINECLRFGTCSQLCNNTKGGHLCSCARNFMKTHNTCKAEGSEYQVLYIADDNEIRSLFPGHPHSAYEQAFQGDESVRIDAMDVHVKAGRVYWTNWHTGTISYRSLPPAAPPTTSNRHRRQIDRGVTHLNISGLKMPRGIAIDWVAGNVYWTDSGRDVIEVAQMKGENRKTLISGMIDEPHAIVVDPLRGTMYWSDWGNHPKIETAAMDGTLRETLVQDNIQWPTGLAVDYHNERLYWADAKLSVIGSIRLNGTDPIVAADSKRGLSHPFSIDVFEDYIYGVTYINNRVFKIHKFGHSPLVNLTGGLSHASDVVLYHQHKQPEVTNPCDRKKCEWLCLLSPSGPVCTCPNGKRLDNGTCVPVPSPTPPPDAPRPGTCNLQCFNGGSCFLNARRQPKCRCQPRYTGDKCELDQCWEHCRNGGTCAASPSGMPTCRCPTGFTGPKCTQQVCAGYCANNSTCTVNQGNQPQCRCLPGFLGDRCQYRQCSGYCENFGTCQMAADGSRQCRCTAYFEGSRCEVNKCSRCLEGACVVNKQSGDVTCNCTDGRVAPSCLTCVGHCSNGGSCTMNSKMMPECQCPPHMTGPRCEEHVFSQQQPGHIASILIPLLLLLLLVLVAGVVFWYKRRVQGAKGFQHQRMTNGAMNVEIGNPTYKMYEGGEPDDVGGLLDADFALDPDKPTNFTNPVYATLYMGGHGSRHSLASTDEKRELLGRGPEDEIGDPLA
Chain of LRP1 ligand-binding cluster I (human) (Q07954 20-4544): as above
Chain of LRP1 ligand-binding cluster III (Q07954 2522-2940): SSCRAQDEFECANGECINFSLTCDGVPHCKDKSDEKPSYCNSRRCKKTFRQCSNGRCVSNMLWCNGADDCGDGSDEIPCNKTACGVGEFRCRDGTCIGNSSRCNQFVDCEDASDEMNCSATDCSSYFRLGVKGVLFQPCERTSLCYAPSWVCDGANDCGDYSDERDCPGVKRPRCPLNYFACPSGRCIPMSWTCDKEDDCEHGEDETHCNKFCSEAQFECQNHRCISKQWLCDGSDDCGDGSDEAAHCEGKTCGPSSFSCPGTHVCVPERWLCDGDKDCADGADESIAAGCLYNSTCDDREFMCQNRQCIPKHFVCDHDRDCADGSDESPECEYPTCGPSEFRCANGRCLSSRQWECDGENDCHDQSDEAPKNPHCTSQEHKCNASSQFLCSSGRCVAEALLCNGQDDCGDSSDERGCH

“MMP-13(E223A), activated form (from UniProt P45452 104-471) (enzyme)” gave a Kd [1] of 3.8 nM.

With proMMP-1 E200A the response (absorbance at 450 nm) ([2]; detection with anti-MMP-1 (SB12e) antibody) was 0.13 and the other: ProMMP-13 bound to LRP1 (% of amount bound without competitor) [3] was 100%.

“proMMP-1-1-13(E200A) (MMP-1_(1-258)-MMP-13_(264-451)) (enzyme)” was tested, and the Kd [1] was 5.1 nM.

proMMP-3 E202A showed a response (absorbance at 450 nm) ([2]; detection with anti-MMP-3 (4B7.3) antibody) of 0.25.

“proMMP-13(E223A) (from UniProt P45452 20-471) (enzyme)” showed a K D,app in the presence of 50 nM ADAMTS-5 [4] of 5.2 nM, a K D,app in the presence of 50 nM TIMP-3 [4] of 8.2 nM and a K D,app in the presence of 250 nM ADAMTS-4 [4] of 5.6 nM. The Kd [5] was over 200 nM, the Kd [6] was over 100 nM and the Kd [7] was 17 nM. For the same molecule, the Kd [8] was 24 nM and the Kd [1] was 6 nM.

With “proMMP-13(WT), MMP-13 with a FLAG tag between the signal and propeptide” the clearance of 10 nM exogenous proMMP-13 from the medium of human chondrocytes, 0-4 h, Western blot; inhibited by 500 nM RAP and in LRP1-silenced cells [9] was 70 min.

“proMMP-13(WT), MMP-13 with a FLAG tag between the signal and propeptide (enzyme)” was tested, and the proMMP-13 (10 nM) found in the cell lysate after 1 h with human chondrocytes at 4 °C (surface binding); abolished in the presence of 500 nM RAP [9] was 25% and the Kd [1] was 5.9 nM.

B1: hemopexin domain of MMP-13 (Hpx_(MMP-13)) (domain or fragment, human, UniProt P45452 284-471, looked up)
chain: CDPSLSLDAITSLRGETMIFKDRFFWRLHPQQVDAELFLTKSFWPELPNRIDAAYEHPSHDLIFIFRGRKFWALNGYDILEGYPKKISELGLPKEVKKISAAVHFEDTGKTLLFSGNQVWRYDDTNHIMDKDYPRLIEEDFPGIGDKVDAVYEKNGYIYFFNGPIQFEYSIWSNRIVRVMPANSILWC
notes: MMP-13 (collagenase 3), human, hemopexin domain released by autolysis; also called Hpx domain of MMP-13; source: from proMMP-13 incubated with 1 mM APMA at 37 °C for at least 16 h
In the case of B1, the Kd [5] is reported as over 200 nM, the Kd [6] is reported as over 50 nM and the Kd ([7]; both partners purified) is reported as 15 nM. It also gave a Kd ([8]; both partners purified) of 13 nM and a Kd [1] of 2.7 nM.

Reference: paper PMC5146981, “MMP-13 is constitutively produced in human chondrocytes and co-endocytosed with ADAMTS-5 and TIMP-3 by the endocytic receptor LRP1” (Matrix Biology, 2016)
